Test results reported in US20170298096A1 (CANIMGUIDE THERAPEUTICS, published 2017).
No end group written: not given here.

T1: His-tagged P3028 (human, not fully specified)
T1 construct: the tag is put first after 'PGE73=His-tag-P3028'; also called PGE73; not shown: His-tag
T1 peptide: {His‑tag}-VFDEFKPLVEEPQNLIK

B1: P28R F7H (peptide)
peptide: KKLDTFHVKLSLFTER
B2: P28R K1D (peptide)
peptide: DKLDTFFVKLSLFTER
B3: P28R F7L (peptide)
peptide: KKLDTFLVKLSLFTER
B4: P28R F13Q (peptide)
peptide: KKLDTFFVKLSLQTER
B5: P28R K9H (peptide)
peptide: KKLDTFFVHLSLFTER
B6: P28R K9F (peptide)
peptide: KKLDTFFVFLSLFTER
B7: P28R F13T (peptide)
peptide: KKLDTFFVKLSLTTER
B8: P28R F13L (peptide)
peptide: KKLDTFFVKLSLLTER
B9: P28R F7V (peptide)
peptide: KKLDTFVVKLSLFTER
B10: P28R K2R (peptide)
peptide: KRLDTFFVKLSLFTER
B11: P28R K9Q (peptide)
peptide: KKLDTFFVQLSLFTER
B12: P28R K2T (peptide)
peptide: KTLDTFFVKLSLFTER
B13: P28R K9A (peptide)
peptide: KKLDTFFVALSLFTER
B14: P28R K2W (peptide)
peptide: KWLDTFFVKLSLFTER
B15: P28R K2F (peptide)
peptide: KFLDTFFVKLSLFTER
B16: P28R F7T (peptide)
peptide: KKLDTFTVKLSLFTER
B17: P28R F13D (peptide)
peptide: KKLDTFFVKLSLDTER
B18: P28R K1W (peptide)
peptide: WKLDTFFVKLSLFTER
B19: P28R F13M (peptide)
peptide: KKLDTFFVKLSLMTER
B20: P28R F7W (peptide)
peptide: KKLDTFWVKLSLFTER
B21: P28R K2I (peptide)
peptide: KILDTFFVKLSLFTER
B22: P28R K1M (peptide)
peptide: MKLDTFFVKLSLFTER
B23: P28R K1E (peptide)
peptide: EKLDTFFVKLSLFTER
B24: P28R F7I (peptide)
peptide: KKLDTFIVKLSLFTER
B25: P28R K1F (peptide)
peptide: FKLDTFFVKLSLFTER
B26: P28R K1Y (peptide)
peptide: YKLDTFFVKLSLFTER
B27: P28R K9I (peptide)
peptide: KKLDTFFVILSLFTER
B28: P28R K9M (peptide)
peptide: KKLDTFFVMLSLFTER
B29: P28R F7N (peptide)
peptide: KKLDTFNVKLSLFTER
B30: P28R K2N (peptide)
peptide: KNLDTFFVKLSLFTER
B31: P28R K9D (peptide)
peptide: KKLDTFFVDLSLFTER
B32: P28R K2D (peptide)
peptide: KDLDTFFVKLSLFTER
B33: P28R F13K (peptide)
peptide: KKLDTFFVKLSLKTER
B34: P28R K1N (peptide)
peptide: NKLDTFFVKLSLFTER
B35: P28R K1T (peptide)
peptide: TKLDTFFVKLSLFTER
B36: P28R K9L (peptide)
peptide: KKLDTFFVLLSLFTER
B37: P28R F7R (peptide)
peptide: KKLDTFRVKLSLFTER
B38: P28R K2M (peptide)
peptide: KMLDTFFVKLSLFTER
B39: P28R F7Q (peptide)
peptide: KKLDTFQVKLSLFTER
B40: P28R F13W (peptide)
peptide: KKLDTFFVKLSLWTER
B41: P28R K1A (peptide)
peptide: AKLDTFFVKLSLFTER
B42: P28R K2A (peptide)
peptide: KALDTFFVKLSLFTER
B43: P28R K2S (peptide)
peptide: KSLDTFFVKLSLFTER
B44: P28R K2Q (peptide)
peptide: KQLDTFFVKLSLFTER
B45: P28R F13I (peptide)
peptide: KKLDTFFVKLSLITER
B46: P28R K1S (peptide)
peptide: SKLDTFFVKLSLFTER
B47: P28R F13A (peptide)
peptide: KKLDTFFVKLSLATER
B48: P28R K2E (peptide)
peptide: KELDTFFVKLSLFTER
B49: P28R F13E (peptide)
peptide: KKLDTFFVKLSLETER
B50: P28R K2H (peptide)
peptide: KHLDTFFVKLSLFTER
B51: P28R K1R (peptide)
peptide: RKLDTFFVKLSLFTER
B52: P28R F7Y (peptide)
peptide: KKLDTFYVKLSLFTER
B53: P28R K1Q (peptide)
peptide: QKLDTFFVKLSLFTER
B54: P28R K9N (peptide)
peptide: KKLDTFFVNLSLFTER
B55: P28R F13R (peptide)
peptide: KKLDTFFVKLSLRTER
B56: P28R K1L (peptide)
peptide: LKLDTFFVKLSLFTER
B57: P28R K1I (peptide)
peptide: IKLDTFFVKLSLFTER
B58: P28R K1V (peptide)
peptide: VKLDTFFVKLSLFTER
B59: P28R K9E (peptide)
peptide: KKLDTFFVELSLFTER
B60: P28R K2Y (peptide)
peptide: KYLDTFFVKLSLFTER
B61: P28R F13V (peptide)
peptide: KKLDTFFVKLSLVTER
B62: P28R F7M (peptide)
peptide: KKLDTFMVKLSLFTER
B63: P28R F7K (peptide)
peptide: KKLDTFKVKLSLFTER
B64: P28R F13Y (peptide)
peptide: KKLDTFFVKLSLYTER
B65: P28R F13S (peptide)
peptide: KKLDTFFVKLSLSTER
B66: P28R F7S (peptide)
peptide: KKLDTFSVKLSLFTER
B67: P28R K2V (peptide)
peptide: KVLDTFFVKLSLFTER
B68: P28R K2L (peptide)
peptide: KLLDTFFVKLSLFTER
B69: P28R F13N (peptide)
peptide: KKLDTFFVKLSLNTER
B70: P28R F13H (peptide)
peptide: KKLDTFFVKLSLHTER
B71: P28R K1H (peptide)
peptide: HKLDTFFVKLSLFTER

Molecular target: T1, His-tagged P3028
Experiment: chip ELISA

ELISA signal	Binder
364	B1
373	B2
517	B3
1140	B4
306	B5
174	B6
494	B7
448	B8
527	B9
417	B10
330	B11
331	B12
191	B13
304	B14
390	B15
517	B16
112	B17
284	B18
1190	B19
380	B20
331	B21
457	B22
396	B23
446	B24

ELISA signal	Binder
332	B25
315	B26
190	B27
283	B28
348	B29
432	B30
149	B31
335	B32
220	B33
445	B34
493	B35
166	B36
369	B37
400	B38
511	B39
430	B40
466	B41
309	B42
281	B43
350	B44
468	B45
344	B46
525	B47
349	B48

ELISA signal	Binder
98	B49
394	B50
523	B51
334	B52
455	B53
256	B54
502	B55
449	B56
483	B57
442	B58
240	B59
301	B60
446	B61
712	B62
232	B63
291	B64
635	B65
700	B66
317	B67
343	B68
862	B69
1050	B70
428	B71
